Laboratory results: paper PMC4506568, “Targeting a Dynamic Protein–Protein Interaction: Fragment Screening against the Malaria Myosin A Motor Complex” (Chemmedchem, 2014)
Where no end group is shown, it is not given here. 8e = not defined here

T1: Plasmodium falciparum myosin A tail domain interacting protein, residues 61–204 (PfMTIPΔ60) (Plasmodium falciparum, UniProt Q8I4W8 61-204)
T1 construct: source: 15N-labeled for NMR; not shown: His tag, N-terminal, kept
T1 sequence: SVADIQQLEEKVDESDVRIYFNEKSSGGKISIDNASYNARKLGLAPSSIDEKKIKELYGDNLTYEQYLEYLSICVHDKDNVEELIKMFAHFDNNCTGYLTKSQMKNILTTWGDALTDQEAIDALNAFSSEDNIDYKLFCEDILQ


Columns and labels:
Conditions in all cases: both partners purified
[1] = target: T1, Plasmodium falciparum myosin A tail …; assay: ITC; 303 K; cell with about 200 μL of 20 μM PfMTIPΔ60 in buffer A (20 mM HEPES pH 7.5, 50 mM NaCl, 1 mM TCEP); peptide added in 2 μL injections from 250 μM; single site fit; n=1
[2] = target: T1, Plasmodium falciparum myosin A tail …; assay: differential scanning fluorimetry; 5 μM PfMTIPΔ60 with 200 μM peptide in buffer A (20 mM HEPES pH 7.5, 50 mM NaCl, 1 mM TCEP), 10× SYPRO Orange, 15–80 °C
[3] = target: T1, Plasmodium falciparum myosin A tail …; assay: protein-detected NMR (1H,15N-HSQC); preformed complex of 100 μM 15N-labeled PfMTIPΔ60 with PfmyoA(799–818), buffer B (20 mM MOPS pH 7.0, 50 mM NaCl, 1 mM TCEP), 10 % D2O, 303 K; fragments 8 or 3 added

Binder | Tm of the complex [2] | further results
8e-GSLLRVQAHIRKKMVAQ (reading uncertain, myosin A (PfmyoA) C-terminal tail, Plasmodium falciparum, PfmyoA(799–818) truncated at its N-terminal end to Ser 803; that chimera3 begins at Ser 803 follows from the order of the list (Leu 805, Leu 804, Ser 803); source: synthetic peptide (Fmoc-based solid-phase peptide synthesis)) [peptide–fragment chimera3 (fragment 8 functionality – glycine spacer – myoA tail from Ser 803)] | 55.8 °C | Kd [1]: 52 nM
8e-GLLRVQAHIRKKMVAQ (reading uncertain, myosin A (PfmyoA) C-terminal tail, Plasmodium falciparum, PfmyoA(799–818) truncated at its N-terminal end to Leu 804; source: synthetic peptide (Fmoc-based solid-phase peptide synthesis)) [peptide–fragment chimera2 (fragment 8 functionality – glycine spacer – myoA tail from Leu 804)] | 53.4 °C | –
SLLRVQAHIRKKMVAQ (myosin A (PfmyoA) C-terminal tail, Plasmodium falciparum, residues 803–818; also called PfmyoA tail peptide; positive control PfmyoA tail peptide) [peptide PfmyoA(803–818)] | – | ΔTm [2]: 15.3 °C
KNIPSLLRVQAHIRKKMVAQ (myosin A (PfmyoA) C-terminal tail, Plasmodium falciparum, residues 799–818; also called myoA tail; myoA tail peptide) [PfmyoA(799–818)] | – | binding result [3]: binds
8e-GLRVQAHIRKKMVAQ (reading uncertain, myosin A (PfmyoA) C-terminal tail, Plasmodium falciparum, PfmyoA(799–818) truncated at its N-terminal end to Leu 805; called the shortest chimera; source: synthetic peptide (Fmoc-based solid-phase peptide synthesis)) [peptide–fragment chimera1 (fragment 8 functionality – glycine spacer – myoA tail from Leu 805)] | 47.8 °C | –
